What was measured:
[1] = rat
[2] = system: blood glucose levels; assay: Blood glucose lowering pharmacodynamics in rats (Amplex Red Glucose/Glucose Oxidase Assay); format: in vivo; conditions: intravenous administration (FIG. 6)
Protocol: Blood glucose levels were determined in rats injected with free glucose and the conjugates using the Amplex Red Glucose/Glucose Oxidase Assay Kit (Invitrogen, Carlsbad, Calif., Cat. No. A22189).

**Q.** With “20K-PEG-insulin: 20 kD PEG-NHS conjugated to human insulin, one 20 kD PEG; benchmark therapeutic (see EP2288375)” as the substance, how does the “in vivo half life” value [1] read?
**A.** improved the in vivo half life

**Q.** And the “blood glucose lowering ability in vivo” value [2]?
**A.** did not display significant glucose lowering ability for an extended time

**Q.** Which “in vivo half life” value [1] does the source give for “VitD-(25)-PEG2K-insulin: 2 KDa PEG scaffold on carbon 25 of vitamin D, carrier conjugated to lysine 29 on the insulin B-chain” here?
**A.** improved the in vivo half life

**Q.** And the “duration of stably reduced blood glucose levels” value [2]?
**A.** approximately eight
